Test results published in patent US6713249B2, “Cell matrix plaques of initial bone formation” (Barnes-Jewish Hospital, priority 1998, dated 2004).

Test system: αvβ3 integrin plaque-like cell/matrix areas in human preosteoblasts
Experiment: Immunocytochemical localization of cell surface αvβ3 integrin plaques in non-permeabilized cells
Assay type: cell-based
Details: bone marrow stromal cells in osteogenic medium with 40 ng/ml OP-1 for 48 hours, non-strained, no Triton X-100; compare FIG. 1C with FIG. 2C
Method: Bone marrow stromal cells grown to semi-confluence and then exposed to osteogenic medium containing 10 mM of β-glycerophosphate, 50 μg/ml ascorbic acid and 40 ng/ml of osteogenic protein OP-1(32) also referred to as bone morphogenetic protein-7 (BMP-7), for 48 hours were defined as preosteoblasts. These preosteoblast cultures are characterized by alkaline phosphatase activity of 80,000 nmole pNPP/min./μg protein, osteopontin expression, absence of osteocalcin expression, and mineralization after 14 days in osteogenic media. […]
Immunocytochemical analysis essentially was performed as previously described (34). […] The results were analyzed either on Zeiss Fluorescent Microscope (Axioscope) using a 63× oil immersion lens or on a Zeiss laser confocal microscope using a 63× lens. […]
In order to examine whether mechanical strain has a qualitative and/or quantitative effect on the localization and expression level of integrins, near-confluent human preosteoblasts and osteoprogenitors were strained on Flexcell Strain Apparatus, as described in Methods. […] In the presence of Triton X-100, which leads to cell permeabilization and thus, allows examination of the distribution of intracellular as well as cell surface molecules, the αvβ3 integrin, as detected by an anti-human αvβ3 antibody, was localized along actin fibers and in small, granular structures adjacent to actin fibers (FIGS. 1A, 1B, 2A and 2B). […]

B1: OP-1: osteogenic protein OP-1, also referred to as bone morphogenetic protein-7 (BMP-7), component of the osteogenic medium (protein, UniProt P18075 293-431, looked up)
Bone morphogenetic protein 7: STGSKQRSQNRSKTPKNQEALRMANVAENSSSDQRQACKKHELYVSFRDLGWQDWIIAPEGYAAYYCEGECAFPLNSYMNATNHAIVQTLVHFINPETVPKPCCAPTQLNAISVLYFDDSSNVILKKYRNMVVRACGCH
In the case of B1, the “number of the plaque-like cell/matrix areas of the αvβ3 expression” value is reported as “stimulation”.
